The text below walks through data of publication doi:10.1101/2022.04.08.487625.

Data set [1] deals with T1, Flag-mut-RNase HEC (catalytically dead RNase HI) (E. coli, UniProt P0A7Y4 1-155, D10R;E48R).
T1 sequence: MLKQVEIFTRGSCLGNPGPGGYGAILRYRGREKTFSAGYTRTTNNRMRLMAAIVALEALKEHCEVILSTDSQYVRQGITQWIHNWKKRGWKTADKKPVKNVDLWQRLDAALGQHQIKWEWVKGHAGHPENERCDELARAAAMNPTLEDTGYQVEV
Description: EMSA.

Data set [2] has as its target T1, Flag-mut-RNase HEC (catalytically dead …). Description: competition.

B1: Dig-RD hybrid (25 bp RNA/DNA) (DNA:RNA)
DNA: GATTCATACCTGTCGTGCCAGCTGC
RNA: GCAGCUGGCACGACAGGUAUGAAUC
As for B1, the binding result in data set [1] is “binds”.

B2: unlabeled RD hybrid (25 bp RNA/DNA) (DNA:RNA)
DNA: GATTCATACCTGTCGTGCCAGCTGC
RNA: GCAGCUGGCACGACAGGUAUGAAUC
As for B2, in data set [2], the binding result is “binds”.
